The text below walks through data of PMC9605868.

In this test the target is AP-1σ1 (cells' own, or HA-AP1S1) (UniProt P61966). Description: anti-Flag IP, western blot for AP-1. The following applies: reference: wild type; sites S366.

On to STING (from UniProt Q86WV6) S366A, for which the “binding against the reference” value was “weaker”.
